Measured values published in the supplement of paper PMC12764529.
± gives the half width of the 95% confidence interval.

Legend:
[1] = folding stability dG unfold from chymotrypsin proteolysis; higher = more stable
Method in brief: (§1)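 Digests were run with trypsin and chymotrypsin at 11 concentrations in threefold dilutions, plus a no-protease condition, on designed mini-proteins in a PA-tagged cDNA display construct. The mini-proteins were under 80 residues, had no cysteine, and were kept only when AlphaFold2 dimer inter-PAE was above 15. After sequencing, Bayesian fitting of the counts gave K50, from which unfolding free energy was derived against a sequence-predicted unfolded-state K50 and a shared folded-state K50, per protease or combined.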

[2] = folding stability dG unfold (combined trypsin and chymotrypsin); higher = more stable
Method in brief: as §1

[3] = folding stability dG unfold from trypsin proteolysis; higher = more stable
Method in brief: as §1

Sequence	folding stability dG unfold [1] [kcal/mol]	folding stability dG unfold [2] [kcal/mol]	folding stability dG unfold [3] [kcal/mol]
SAGGSAGGSAGGMSITFTAPDGSKITATIDPDGNVLVEVHLGDKPYYVKGPVETLLKNAPSAGGSAGGSAGG [r7_178_TrMRF]	0.904 ± 0.1	0.719 ± 0.07	0.325 ± 0.027
SAGGSAGGSAGGMSITISVPEKTATIEIPGLGKTITIPPGETITVPIPNVPPFKITTEPPSAGGSAGGSAGG [r11_939_JUSTAS]	0.854 ± 0.044	0.732 ± 0.086	0.76 ± 0.059
SAGGSAGGSAGGMTIVLNIPKEELTEEEIKKLKESLPSDNPVKIIVKPKPPRKFYPKSTISAGGSAGGSAGG [r7_979_JUSTAS]	1.12 ± 0.048	0.925 ± 0.065	0.605 ± 0.024
SAGGSAGGSAGGMTLEELKNLKPGEEVEIEIEVYDKNGKKVSKYRIRIYNDKIEIEKLPSAGGSAGGSAGGS [r10_394_TrROS_Hall]	2.991 ± 0.026	2.71 ± 0.092	2.4 ± 0.057
SAGGSAGGSAGGMTLEIEINGLKVRIEFDEETKELRIEVEPAPPPVVVYEKEKLEEEEESAGGSAGGSAGGS [r10_724_TrROS_Hall]	1.52 ± 0.05	1.46 ± 0.18	1.56 ± 0.078
SAGGSAGGSAGGMTPEEKIEALIKATPPLTVKTSGPGVSYEVEDLEKLKKLNVTISSVLGSAGGSAGGSAGG [r7_504_JUSTAS]	-0.683 ± 0.24	-0.637 ± 0.22	-1.3 ± 0.67
SAGGSAGGSAGGMTQEVTLEPLPDGTVKLLSVEAPESTVTVPVKLPGGGEEVRTLPPEALSAGGSAGGSAGG [r7_829_JUSTAS]	-0.255 ± 0.15	-0.131 ± 0.16	-0.0201 ± 0.045
SAGGSAGGSAGGMTVERREVFPLGESLVITETREVLDPSSDVPVTVETRVEVLPPEVPPSAGGSAGGSAGGS [r10_599_JUSTAS]	0.25 ± 0.12	0.033 ± 0.18	-1.32 ± 0.74
SAGGSAGGSAGGMTVLETEVTTLPNGVVKTTTLYKDPSTGALHTVTEEVYVPLGETALLSAGGSAGGSAGGS [r10_72_JUSTAS]	0.15 ± 0.15	0.523 ± 0.11	0.716 ± 0.022
SAGGSAGGSAGGMTYVTVTLKEGDTEVTLTFPLEKLPEVVPEPGIEILEVETSPLDPELLSAGGSAGGSAGG [r17_204_JUSTAS]	0.737 ± 0.14	1.05 ± 0.12	1.34 ± 0.081
SAGGSAGGSAGGMVETGTPSSGSSSPSYVLTTTTLTLLDGTFVPTTTTTTFSDPAEAAAASAGGSAGGSAGG [r7_896_JUSTAS]	0.411 ± 0.077	1.14 ± 0.086	1.52 ± 0.082
SAGGSAGGSAGGMVIERPLPNGEPLLVELGRPASAPARVTVPNPGRPLGTITSLEELEERSAGGSAGGSAGG [r7_72_TrMRF]	0.565 ± 0.03	0.332 ± 0.13	-0.207 ± 0.11
SAGGSAGGSAGGMVTATVTEYQPGEGLLTVKPPDGSTITIAVPPSVSYEELKNTTIDLSLSAGGSAGGSAGG [r7_296_JUSTAS]	0.021 ± 0.072	0.714 ± 0.066	1.09 ± 0.036
SAGGSAGGSAGGMVTTKTVVTFDPSGYITTTETIKVVGTDELLTKTSVTPVEPVPPLLSSAGGSAGGSAGGS [r10_928_JUSTAS]	1.18 ± 0.026	0.828 ± 0.1	-0.179 ± 0.2
SAGGSAGGSAGGMVTVETAPAPEGTERVIRVTFLEVNPEDGTIVRPATLTFVVPPGDPLSAGGSAGGSAGGS [r10_86_TrMRF]	0.876 ± 0.083	0.686 ± 0.062	0.397 ± 0.066
SAGGSAGGSAGGMVVEVVELPDGQLVVRAGPVGYAVVFNGEEVTLFELPPDAEVELLPFSAGGSAGGSAGGS [r10_637_TrMRF]	1.55 ± 0.089	1.36 ± 0.098	1.1 ± 0.032
SAGGSAGGSAGGMVVLKTPERFVVVESVEVYVPVRDPDGTPVRWSPVRTEVRVTVIPPLASAGGSAGGSAGG [r7_3_JUSTAS]	2.13 ± 0.057	1.86 ± 0.058	1.34 ± 0.038
SAGGSAGGSAGGMVYFPESLKEEVIEELKKKGYKIKSIEKIEGGYIRITTPKNPIEIKLLSAGGSAGGSAGG [r17_379_JUSTAS]	0.786 ± 0.25	0.8 ± 0.17	0.443 ± 0.084

Sequence	folding stability dG unfold [1] [kcal/mol]	folding stability dG unfold [2] [kcal/mol]	folding stability dG unfold [3] [kcal/mol]
SAGGSAGGSAGGMWYIRITYDNGREIWIPIGDPITIKHKDGKPVQIKEVEVYPLPPGQISAGGSAGGSAGGS [r10_20_TrROS]	2.72 ± 0.032	2.58 ± 0.11	2.04 ± 0.064
SAGGSAGGSAGGMYYAIITNKNGKKKIIKFKSLEEMEEAAKKNNIKIEIIPKEELEKLLSAGGSAGGSAGGS [r10_66_TrROS_Hall]	3.64 ± 0.043	3.65 ± 0.069	3.56 ± 0.11
SAGGSAGGSAGGNPPDWKPVGEEEFPIPNPNGMQIKISVWTIRAPDDGKSASFIDIEMYPSAGGSAGGSAGG [r7_546_TrROS]	1.87 ± 0.072	1.58 ± 0.32	1.19 ± 0.07
SAGGSAGGSAGGNWVTIWIPFKMTHYRPDPDGKMYPHKHEMPRPITIPPGQATEDALDKISAGGSAGGSAGG [r7_777_TrROS]	0.762 ± 0.14	0.595 ± 0.11	0.165 ± 0.12
SAGGSAGGSAGGNYVVRIEHNGQPIMEQPFPGSLEDAKDYVKEIAQFFPPDKVKIEVYKFSAGGSAGGSAGG [r7_81_TrROS]	0.458 ± 0.19	0.292 ± 0.095	-0.0528 ± 0.057
SAGGSAGGSAGGPDFKIEPVEKKGNYELYKAYIPETGEEFFLVYYPNPKEVKIYPSDYLSAGGSAGGSAGGS [r10_172_TrMRF]	1.52 ± 0.034	1.29 ± 0.049	0.754 ± 0.038
SAGGSAGGSAGGPEVEVFYERGPDGPLKVVVVVRNPDTPEVTVLVADLEPEKALEFLEALSAGGSAGGSAGG [r7_105_TrMRF]	1.86 ± 0.084	1.89 ± 0.18	2 ± 0.14
SAGGSAGGSAGGPEVTITLPPPEKVKVEIVEIEVEGGKVRIRVRNENGEELTFTVPLEDLSAGGSAGGSAGG [r7_829_TrROS_Hall]	1.59 ± 0.35	1.51 ± 0.26	0.667 ± 0.18
SAGGSAGGSAGGPFPFKIDSVEWETTDNKRYYEIKLEFPNGNPVTIHMPPNNPDDVKDAISAGGSAGGSAGG [r7_365_TrROS]	-0.00838 ± 0.25	0.144 ± 0.2	0.232 ± 0.071
SAGGSAGGSAGGPGWRTIEFWIPVDDFLDEIKLPPGITPIRIIKPNPNGYVRIMIIYPYSAGGSAGGSAGGS [r10_352_TrROS]	3.05 ± 0.059	2.89 ± 0.14	2.53 ± 0.1
SAGGSAGGSAGGPITSIDTSGPVITVTATTPGGSVTMDVPPDLTLEEVEALLKANPELLNSAGGSAGGSAGG [r7_373_JUSTAS]	-0.265 ± 0.12	0.788 ± 0.087	1.41 ± 0.072
SAGGSAGGSAGGPKGYFRIRIEIPNGQKREIWFPPDDAEEWVKSLGIPEENVKITKIEPYSAGGSAGGSAGG [r7_211_TrROS]	0.874 ± 0.27	0.868 ± 0.18	0.506 ± 0.15
SAGGSAGGSAGGPKIEVNEDGTVTITLEVDGKLVTKTVKVELEAPPVETVEFVKEGEEVSAGGSAGGSAGGS [r10_240_TrROS_Hall]	1.21 ± 0.046	1.02 ± 0.077	0.822 ± 0.043
SAGGSAGGSAGGPKVEVTVKGKPATVEWFPEEGKARVTVPDGRVYVLDLNGDKLEIKPLSAGGSAGGSAGGS [r10_724_TrMRF]	0.588 ± 0.13	0.512 ± 0.1	0.258 ± 0.041
SAGGSAGGSAGGPKVIEITNKDGSTFRLVEVDGELYLYNEKTGKVVKLPPGAKITIKKPSAGGSAGGSAGGS [r10_637_TrROS_Hall]	2.65 ± 0.031	2.34 ± 0.059	1.39 ± 0.033
SAGGSAGGSAGGPLKEAVEAAVASGAPEAEYLLVTPEGELRVTVKVYPEEGKVEVEVSPLSAGGSAGGSAGG [r17_475_TrMRF]	0.0794 ± 0.063	0.555 ± 0.037	0.903 ± 0.018
SAGGSAGGSAGGPLKLKVKLKLEFEVKDENGKTSKVELEVELEVELPEIVLDKNGKLLLSAGGSAGGSAGGS [r10_168_TrROS_Hall]	3.39 ± 0.26	2.95 ± 0.32	2.42 ± 0.091
SAGGSAGGSAGGPMEPIELTFMIPHPNGHPIVAKTEIWRMKNGFFIKPEIYNPDGNPIPSAGGSAGGSAGGS [r10_1056_TrROS]	-0.377 ± 0.3	-0.207 ± 0.18	-0.153 ± 0.25
